Assay results: patent US20180172701A1 (published 2018)

B1: CA185_01979 mouse IgG1 (antibody, V domains shown)
VH: EVHLVESGPGLVKPSQSLSLTCSVTGYSITNSYWDWIRKFPGNKMEWMGYINYSGSTGYNPSLKSRISISRDTSNNQFFLQLNSITTEDTATYYCARGTYGYNAYHFDYWGRGVMVTVSS
VL: DIQMTQSPASLSASLEEIVTITCQASQDIGNWLSWYQQKPGKSPHLLIYGTTSLADGVPSRFSGSRSGTQYSLKISGLQVADIGIYVCLQAYSTPFTFGSGTKLEIKR
notes: also called CA185_01979.0; VR0001842
B2: CA185_01979 mFab (no hinge) (Fab, V domains shown)
VH: B1 VH
VL: B1 VL
notes: also called CA185_01979 Fab

What was measured:
[1] = target: T1, human TNFα without compound (apo) (human, UniProt P01375 77-233); assay: SPR BIAcore T200; IgG captured on anti-mouse Fc; apo TNFα 50 nM injected
T1 construct: In-house human TNFα; No compound, DMSO only; also called apo human TNFα; hTNF
T1 sequence (P01375 77-233 limits assumed): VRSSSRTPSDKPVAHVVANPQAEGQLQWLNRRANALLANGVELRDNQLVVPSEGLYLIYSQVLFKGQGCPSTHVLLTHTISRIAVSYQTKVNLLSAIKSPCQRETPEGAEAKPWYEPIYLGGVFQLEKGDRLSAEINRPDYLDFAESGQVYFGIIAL

[2] = target: T2, human TNFα in complex with compound (2) (human, UniProt P01375 77-233); assay: SPR BIAcore T200; IgG captured on anti-mouse Fc
T2 construct: also called human TNFα +compound (2)
T2 sequence (P01375 77-233 limits assumed, one chain of several): as the sequence (P01375 77-233 limits assumed) above

[3] = target: T3, human TNFα in complex with compound (1) (human, UniProt P01375 77-233); assay: SPR BIAcore T200; IgG captured on anti-mouse Fc
T3 construct: also called human TNFα +compound (1); TNFα-compound (1) complex
T3 sequence (P01375 77-233 limits assumed, one chain of several): as the sequence (P01375 77-233 limits assumed) above

[4] = target: T2, human TNFα in complex with compound (2); assay: SPR BIAcore T200; IgG captured on anti-mouse Fc; TNFα 50 nM + 2 µM compound injected
[5] = target: T3, human TNFα in complex with compound (1); assay: as above
[6] = target: T3, human TNFα in complex with compound (1); assay: size exclusion chromatography (HPLC), molar excess of Fab

Binder | Kd [1] | koff [1] | kon [1] | log selective binding for compound-distorted against apo human TNFα [2] | log selective binding for compound-distorted against apo human TNFα [3] | Kd [4] | koff [4] | kon [4] | Kd [5] | koff [5] | kon [5] | stoichiometry (Fab : TNFα trimer) [6]
B1 | 6.7 nM | 0.00071 s⁻¹ | 110000 M⁻¹ s⁻¹ | > 2 log | > 2 log | 0.058 nM | 3.3e-05 s⁻¹ | 570000 M⁻¹ s⁻¹ | 0.034 nM | 1.6e-05 s⁻¹ | 470000 M⁻¹ s⁻¹ | 
B2 |  |  |  |  |  |  |  |  |  |  |  | 1 Fab per TNFα trimer
